Results reported in publication doi:10.1101/2025.11.18.25340485 (medRxiv, 2025).

Target: T1, WT-RBD (receptor-binding domain of the SARS-CoV-2 wild-type, Wuhan-Hu-1, spike protein) (SARS-CoV-2, UniProt P0DTC2)
T1 construct: not shown: His6, C-terminal, kept
Assay: BLI
Conditions: both partners purified

B1: CC25.4 Fab (Fab, V domains shown)
VH: QVQLVQSGAEVKKPGASVKVSCKASGYTFTDYFLHWVRQAPGQGLEWMGWINPDSGGTNYAQRFQGRVTMTRDTSISTAYMEVSRLRSDDTAVYYCARDNERYQMQNYYHYYGMDVWGQGTTVTVVS
VL: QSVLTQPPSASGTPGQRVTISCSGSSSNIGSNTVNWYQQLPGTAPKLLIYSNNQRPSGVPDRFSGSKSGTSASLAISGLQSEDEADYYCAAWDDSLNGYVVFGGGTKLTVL
notes: also called class V antibody; source: ExpiCHO cells, co-transfected, purified (CaptureSelect CH1-XL, SEC)
**Q.** Which Kd does the source give for B1 here?
**A.** 400 pM
